# Assay results reported in article PMC11224109, “Synthesis and preclinical evaluation of novel ^18F-vancomycin-based tracers for the detection of bacterial infections using positron emission tomography” (European Journal of Nuclear Medicine and Molecular Imaging, 2024).
# Tests used:
# [1] = test system: S. aureus; test: In vitro tracer binding to S. aureus; design: species or system Staphylococcus aureus; settings: clinical isolate, culture OD600 about 3.0, 37 °C, sampled at 0, 15 and 30 min, washed twice, gamma counter
# Method: (§1) Single colonies of clinical S. aureus and E. coli isolates were used to inoculate TSB and incubated overnight. From the overnight cultures, fresh cultures were started and grown to an optical density at 600 nm (OD600) of approximately 3.0. Both strains were incubated with tracer (3.5 MBq in 1 mL 0.9% saline) in a water bath at 37 °C. The final tracer concentration was 120 kBq ± 28 (38.6 pg ± 9.1 and 0.5 pg ± 0.1 of [^18F]BODIPY-FL-vancomycin and [^18F]PQ-VE1-vancomycin, respectively) per mL culture. At fixed time intervals (0, 15 and 30 min), aliquots were collected (2.0 mL in a 2 mL Eppendorf tube) and washed twice with sterile PBS (1.0 mL per washing step). In each washing step, the bacteria were pelleted by centrifugation (10.000 rpm, 60 s) and resuspended in fresh PBS. […] Measurements were corrected for background and decay. Results are reported as counts per s (Bq). To correlate bound tracer with the number of bacteria in a sample, the bacterial suspensions (2 ×) were plated and CFUs were counted.
# [2] = test system: E. coli; test: In vitro tracer binding to E. coli; design: species or system Escherichia coli; settings: clinical isolate, culture OD600 about 3.0, 37 °C, sampled at 0, 15 and 30 min, washed twice, gamma counter
# Method: as §1
# [3] = Summary of tracer stability in vitro and in vivo
# Method: Stability of the tracers was determined in PBS and human plasma. In a typical experiment, 1 MBq of radioactivity (10–20 µL) was added to 250 µL of PBS or human plasma. Samples were heated to 37 °C on a shaker and sampled at fixed intervals. For samples containing human plasma, protein was precipitated using two volumes of cold MeCN. Precipitated samples were briefly centrifuged to pellet the insoluble fraction and supernatant was used for stability assessment. Supernatant (1 µL) was loaded on a TLC plate and imaged using BAS-IP MS 2025 E plates (Fujifilm, Tokyo, Japan) on an Amersham Typhoon Biomolecular Imager (GE Healthcare Bio-Sciences Corp, Chicago, United States) equipped with a phosphor imaging stage. [^18F]BODIPY-FL-vancomycin has an Rf of 0.68 (petroleum ether/MeOH 3:1), [^18F]FB-vancomycin has an Rf of 0.66 (2 M NaOAc/MeOH 5:1). For [^18F]PQ-VE1-vancomycin, conditions described in [44] were used.
# [4] = Biodistribution in vivo and PET in healthy mice; settings: in vivo; for tissue uptake at 0.5 h / tissue uptake at 1 h: male, C57BL/6, mouse, 2 MBq, total radioactivity, Biodistribution, healthy male C57BL/6 mice, penile vein injection, gamma counter, mean of n = 3; for tissue uptake at 0.5 h: 30 min; for tissue uptake at 1 h: 60 min
# Method: All murine experiments were approved by the Animal Care and Use Committee of the University of Groningen under license protocol number 2114768-01-001. In vivo biodistribution was performed in male C57BL/6 mice (age 8 weeks, 25 g). Per tracer, the animals were divided in three groups based on the tracer distribution times (30 min, 60 min, and 90 min). […] Each experimental arm (i.e. time point) consisted of three animals. […] Tracer was administered at t = 0 via penile vein injection (2.0 ± 0.9 MBq in 100 µL 0.9% saline solution, Supplemental Table 2). After tracer administration, the animals were transferred to a Siemens Focus 220 microPET small animal scanner (Siemens, Munich, Germany) and scanned for the designated time, followed by a transmission scan of 10 min for attenuation correction. PET data were normalized and corrected for decay, after which the PET data were reconstructed using OSEM2D-Z1-SC-256. The PET data frames used for reconstruction were: 6 × 10 s, 4 × 30 s, 2 × 60 s, 120 s, 180 s, 4 × 300 s, 3 × 600 s, 1200 s or until the designated scan time was reached, taking into account a 10-min transmission scan following the emission scan. Next, animals were terminated, and organs harvested to assay biodistribution in a calibrated gamma counter (Wizard2, Perkin Elmer, Waltham, United States).
# [5] = Distribution coefficient LogD7.4, shake-flask n-octanol/PBS; type: physicochemical; settings: shake-flask n-octanol/PBS pH 7.4, 500 µL each, 10 µL tracer in saline, vortexed 30 s, shaken 15 min, gamma counter, mean ± SD
# Method: The tracer distribution coefficient in n-octanol/PBS pH 7.4 (LogD7.4) was determined using a shake-flask methodology. To an Eppendorf tube containing 500 µL n-octanol and 500 µL PBS, 10 µL tracer solution in saline was added. The vial was vortexed for 30 s and placed on an Eppendorf shaker for 15 min. After incubation, layers were separated by centrifugation (1 min at 10.000 rpm) and a fraction of the n-octanol layer was pipetted off. To minimize contamination of the bottom layer with the n-octanol layer, the bottom PBS layer was collected by puncturing the bottom of the Eppendorf tube with a 22G needle and aspirating a fraction of the PBS layer. Collected fractions were weighted to correct for collected volume and subsequently measured on a calibrated gamma counter and corrected for decay. LogD7.4 was calculated as [drawing 1] .
smiles,measurement,setting,value
CC(C)C[C@H](C(=O)N[C@H]1C(=O)N[C@@H](CC(N)=O)C(=O)N[C@H]2C(=O)N[C@H]3C(=O)N[C@H](C(=O)N[C@H](C(=O)O)c4cc(O)cc(O)c4-c4cc3ccc4O)[C@H](O)c3ccc(c(Cl)c3)Oc3cc2cc(c3O[C@@H]2O[C@H](CO)[C@@H](O)[C@H](O)[C@H]2O[C@H]2C[C@](C)(N)[C@H](O)[C@H](C)O2)Oc2ccc(cc2Cl)[C@H]1O)N(C)C(=O)c1ccc(F)cc1 [[^18F]FB-vancomycin],Binding to S. aureus,[1],no bacterial binding was observed
same,Binding to E. coli,[2],no bacterial binding was observed
same,Stability,[3],Rapidly degraded in vitro and in vivo.
same,tissue uptake at 0.5 h,"[4]; iv, Bladder",21.8 %ID/g
same,tissue uptake at 1 h,"[4]; iv, Bladder",18.5 %ID/g
same,tissue uptake at 0.5 h,"[4]; iv, Bone",0.06 %ID/g
same,tissue uptake at 1 h,"[4]; iv, Bone",0.04 %ID/g
same,tissue uptake at 0.5 h,"[4]; iv, Brain",0.05 %ID/g
same,tissue uptake at 1 h,"[4]; iv, Brain",0.05 %ID/g
same,tissue uptake at 0.5 h,"[4]; iv, Fat",0.54 %ID/g
same,tissue uptake at 1 h,"[4]; iv, Fat",0.26 %ID/g
same,tissue uptake at 0.5 h,"[4]; iv, Heart",0.11 %ID/g
same,tissue uptake at 1 h,"[4]; iv, Heart",0.22 %ID/g
same,tissue uptake at 0.5 h,"[4]; iv, Kidneys",1.01 %ID/g
same,tissue uptake at 1 h,"[4]; iv, Kidneys",0.45 %ID/g
same,tissue uptake at 0.5 h,"[4]; iv, Large intestine",0.25 %ID/g
same,tissue uptake at 1 h,"[4]; iv, Large intestine",0.37 %ID/g
same,tissue uptake at 0.5 h,"[4]; iv, Liver",0.15 %ID/g
same,tissue uptake at 1 h,"[4]; iv, Liver",0.1 %ID/g
same,tissue uptake at 0.5 h,"[4]; iv, Lungs",0.2 %ID/g
same,tissue uptake at 1 h,"[4]; iv, Lungs",0.14 %ID/g
same,tissue uptake at 0.5 h,"[4]; iv, Muscle",0.14 %ID/g
same,tissue uptake at 1 h,"[4]; iv, Muscle",0.12 %ID/g
same,tissue uptake at 0.5 h,"[4]; iv, Plasma",0.29 %ID/g
same,tissue uptake at 1 h,"[4]; iv, Plasma",0.15 %ID/g
same,tissue uptake at 0.5 h,"[4]; iv, Small intestine",0.3 %ID/g
same,tissue uptake at 1 h,"[4]; iv, Small intestine",0.19 %ID/g
same,tissue uptake at 0.5 h,"[4]; iv, Spleen",0.14 %ID/g
same,tissue uptake at 1 h,"[4]; iv, Spleen",0.09 %ID/g
same,tissue uptake at 0.5 h,"[4]; iv, Stomach",0.1 %ID/g
same,tissue uptake at 1 h,"[4]; iv, Stomach",0.21 %ID/g
same,tissue uptake at 0.5 h,"[4]; iv, Whole blood",0.2 %ID/g
same,tissue uptake at 1 h,"[4]; iv, Whole blood",0.1 %ID/g
same,Accumulation,[4]; mouse,"No accumulation in tissues, only in urine"
same,Clearance,[4]; mouse,Rapid renal clearance
same,In vivo stability,"[4]; mouse, iv",poor in vivo stability
same,LogD7.4,[5],-0.96 ± 0.03 (n = 12)
